From US5834244
pKi: −log10 of the molar value.

Experiments:
[1] = target: human plasma kallikrein (human) (UniProt P03952)
human Factor XIa (human) = human Factor XIa (human) (UniProt P03951)
[2] = target: tissue factor-Factor VIIa complex (human Factor VIIa with recombinant human tissue factor 1-243) (human) (UniProt P08709); assay: chromogenic enzyme inhibition assay under equilibrium conditions; apparent Ki*
[3] = target: tissue factor-Factor VIIa complex (human Factor VIIa with recombinant human tissue factor 1-243) (human) (UniProt P08709); assay: chromogenic enzyme inhibition assay, FVIIa 10 nM, TF1-243 50 nM; apparent Ki* by fit to the tight-binding equation
[4] = target: rabbit TF-FVIIa in the PT assay (rabbit thromboplastin with rabbit plasma) (rabbit)
[5] = target: tissue factor-Factor VIIa complex (human Factor VIIa with recombinant human tissue factor 1-243) (human) (UniProt P08709); assay: apparent Ki* for TF-FVIIa; method not told at this place

pKi [5]	Substance	fold prolongation of clotting time, APTT assay in normal human plasma (fold prolongation at 40 µM inhibitor) [1]	fold prolongation of clotting time, APTT assay in normal human plasma (fold prolongation at 40 µM inhibitor) (human Factor XIa (human))	pKi [2]	pKi [3]	fold increase of clotting time over baseline, PT assay in rabbit plasma (fold increase over baseline at 40 µM) [4]
–	APPI, Alzheimer's amyloid β-protein precursor inhibitor	3.6	3.6	6.52	6.52	1.4
6.22	first Kunitz domain of TFPI	–	–	–	–	–
